Measurements published in article PMC10200060, “Inhibition of DAMP actions in the tumoral microenvironment using lactoferrin-glycyrrhizin conjugate for glioblastoma therapy” (Biomaterials Research, 2023).

Legend:
[1] = GBM targeted-GL by HPLC in brain homogenate; assay type: in vivo, orthotopic GBM model mice
Protocol: Orthotopic GBM mice model mice were used for quantification of GBM targeting efficacy. The brain tissue was homogenized in deionized water at a 33.3 w/v (%) using a FastPrep-24 5G (MP biomedical, South Korea). The GL were added to pooled brain homogenate to obtain seven-point calibration curves with a range of 10–1000 ng mL^−1. Then, homogenate (50 μL) was mixed with methanol (100 μL). […] Thereafter, supernatants (100 μL) were mixed with mobile phase solution (900 μL), then filtered with a 0.22 μm syringe filter. Samples were collected in a 2 mL HPLC vial (Screw top vial, Waters, USA) and analyzed by HPLC at 254 nm. […] Mice were sacrificed and brain tissues were collected 10 min after the GL and Lf-GL injection. The samples for quantification were also conducted using the same process as GL standard preparation.

[2] = test system: U87MG human glioma cell line; assay: Cell viability test (CCK-8) in U87MG; assay type: cell-based; conditions: 50 μM GL equivalent
Protocol: Cell viability was determined using a cell counting kit-8 (CCK-8). U87MG and HUVECs (seeding density: 0.75 × 10^4 cells per well) in 96-well culture plates were treated with GL, Lf, or Lf-GL (25 to 200 × 10^–6 M of GL equivalent concentration) and were incubated for different periods of time (24, 48, and 72 h). After washing with PBS, they were treated with a cell culture medium containing a CCK-8 assay kit (Abbkine) and were incubated at 37 °C and 5% CO2 for 2 h. Then, absorbance was measured at 450 nm in a micro-plate reader (VLBL00D0, Thermo Fisher Scientific). Results were quantified using Sigma Plot (Systat Software, USA). To determine the effect of extracellular HMGB1 in GBM and endothelial cell proliferation, U87MG and HUVECs were seeded in 96-well culture plates (seeding density: 0.75 × 10^4 cells per well) and GL, Lf, or Lf-GL (50 × 10^–6 M GL equivalent concentration) were added to cells with or without HMGB1 protein (U87MG: 0.1 μg mL^−1, and HUVEC: 1 μg mL^−1). Cells were incubated for different periods of time (24, 48, and 72 h).

[3] = test system: HMGB1; assay: HMGB1 ELISA of U87MG culture medium; assay type: cell-based, human; conditions: 50 μM GL equivalent, 48 h (control 131.8 ± 11.4)
Protocol: U87MG cells were seeded in 100 mm-cell culture dishes (2.2 × 10^6 cells per dish) and treated with GL, Lf, or Lf-GL (50 × 10^–6 M GL equivalent concentration) for 48 h. After incubating, cells were collected using a cell scrapper and were centrifuged for 3 min at 150 × g. Supernatant was collected as cell culture medium, and pellets were washed with cold PBS twice and transferred into a microcentrifuge tube. Tubes were centrifuged, and then pellets were resuspended in 500 μL 1X hypotonic buffer and incubated on ice. Then, 25 μL of NP40 was added and the mixture was agitated using a vortex mixer at the highest setting. Homogenates were centrifuged for 10 min at 842 × g at 4℃. Supernatant was collected as the cytoplasmic fraction, and pellets were resuspended in cell extraction buffer (50 μL) and were incubated for 30 min on ice with vortexing at 10 min intervals. Then, homogenates were centrifuged for 30 min at 14,000 × g at 4℃. Supernatant was collected as the nuclear fraction. The amount of HMGB1 in the samples was measured using a HMGB1 ELISA kit (Abbkine), and absorbance was measured at 450 nm in a micro-plate reader. A DNA assay (Quant-iT™ dsDNA Assay Kit, Invitrogen) was also conducted to express HMGB1 concentrations in equivalent amounts of DNA.

[4] = test system: orthotopic GBM (U87MG) mice model; assay: Nissl staining: GBM/normal brain ratio; assay type: in vivo, Balb/c nude mice; conditions: daily i.v. GL equivalent 50 mg kg^−1, 14 days (control 37.5 ± 2.3)
Excerpt: After two weeks, mice were sacrificed, and the brains were harvested and fixed with paraformaldehyde (4%). Then, tissue processing was automatically conducted using a Leica TP1020 semi-enclosed Benchtop Tissue Processor (Leica Biosystems, Wetzlar, Hesse, Germany), followed by embedding in paraffin blocks. Paraffin blocks were sliced into 5 μm thick slices using a Leica RM2145 Microtome (Leica Biosystems). Nissl staining was used to stain brain tissue slides with pre-warmed 0.1% Cresyl Violet Stain Solution (Abcam). TUNEL assays were conducted following the manufacturer’s instructions. For immunofluorescence staining; anti-HMGB1 antibody (Abcam), anti-Ki67 antibody (Abcam), anti-CD31 antibody (Abcam), and anti-VEGF antibody (Abcam) were used as primary antibodies, and goat anti-rabbit IgG-H&L Alexa Fluor 488 and goat anti-rabbit IgG H&L Alexa Fluor 647 were used as secondary antibodies, followed by DAPI mounting.

[5] = In vivo pharmacokinetics study; conditions: mice, i.v.
[6] = test system: HMGB1; assay: HUVEC co-cultured with U87MG: HMGB1 ELISA; assay type: cell-based, human; conditions: HUVEC/U87MG co-culture, 100 μM GL equivalent, 24 h (control 217.8 ± 5.9)
Protocol: (§1) To evaluate the inhibitory effect of Lf-GL on neovascularization in the tumor microenvironment in vitro, U87MG cells were seeded in the Transwell® insert chambers that were 6.5 mm in diameter and had 0.4 μm pore sizes (seeding density: 2.5 × 10^4 cells per well, Corning). HUVECs were seeded in the Transwell basal chamber (seeding density: 5.0 × 10^4 cells per well). GL, Lf, or Lf-GL (100 × 10^–6 M of GL equivalent concentration) were added to the insert chamber, and cells were incubated for 24 h. CCK-8 assay and HMGB1 ELISA were conducted at the basal chamber.

[7] = test system: HUVEC; assay: HUVEC co-cultured with U87MG: CCK-8 at basal chamber; assay type: cell-based, human; conditions: HUVEC/U87MG Transwell co-culture, 100 μM GL equivalent, 24 h
Protocol: as §1

[8] = GL equivalent 50 mg kg^−1, plasma

B1: Lf-GL: lactoferrin-glycyrrhizin conjugate with ligation ratio Lf:GL 1:10, used in further experiments (conjugate, UniProt P24627 20-708, looked up)
Lactotransferrin: APRKNVRWCTISQPEWFKCRRWQWRMKKLGAPSITCVRRAFALECIRAIAEKKADAVTLDGGMVFEAGRDPYKLRPVAAEIYGTKESPQTHYYAVAVVKKGSNFQLDQLQGRKSCHTGLGRSAGWIIPMGILRPYLSWTESLEPLQGAVAKFFSASCVPCIDRQAYPNLCQLCKGEGENQCACSSREPYFGYSGAFKCLQDGAGDVAFVKETTVFENLPEKADRDQYELLCLNNSRAPVDAFKECHLAQVPSHAVVARSVDGKEDLIWKLLSKAQEKFGKNKSRSFQLFGSPPGQRDLLFKDSALGFLRIPSKVDSALYLGSRYLTTLKNLRETAEEVKARYTRVVWCAVGPEEQKKCQQWSQQSGQNVTCATASTTDDCIVLVLKGEADALNLDGGYIYTAGKCGLVPVLAENRKSSKHSSLDCVLRPTEGYLAVAVVKKANEGLTWNSLKDKKSCHTAVDRTAGWNIPMGLIVNQTGSCAFDEFFSQSCAPGADPKSRLCALCAGDDQGLDKCVPNSKEKYYGYTGAFRCLAEDVGDVAFVKNDTVWENTNGESTADWAKNLNREDFRLLCLDGTRKPVTEAQSCHLAVAPNHAVVSRSDRAAHVKQVLLHQQALFGKNGKNCPDKFCLFKSETKNLLFNDNTECLAKLGGRPTYEEYLGTEYVTAIANLKKCSTSPLLEACAFLTR
modifications: glycyrrhizin conjugate
[1]; brain/GBM accumulation
  Accumulated amount higher than GL without Lf conjugation: twofold
[1]; orthotopic GBM mice, i.v. GL equivalent 50 mg kg^−1, 10 min after injection
  GL concentration detected in brain homogenate: 19.3 ± 1.6 µg/mL
[2]; 72 h
  Growth rate: 68.7 ± 15.9%
[2]; after 48 h treatment
  Number of cells, % of the original count: 44.1 ± 6.3%
[3]
  HMGB1 released into the medium of U87MG cells: 74.0 ± 0.9 ng/mL
[4]
  GBM/normal brain ratio: 8.9 ± 3.2
[5]; GL equivalent 50 mg kg^−1
  Increase of AUClast versus free GL: tenfold
[5]; [8]
  Cmax: 270.98 ± 130.92 μg/㎖
  MRT, mean retention time: 3.4 ± 0.8 min
  Tmax: 1 min
[6]
  HMGB1 level in medium: 176.1 ± 4.9 ng/mL
[7]
  Reduction of endothelial cell proliferation: 13.0 ± 0.7%
